Data published in publication PMC7608827 (Science Advances, 2020).
Where two headings read alike, the source gives them in different places. Blank lines part the entries; values can stand above or below the molecule they belong to.

B1: CaCohA2, cohesin module of Clostridium acetobutylicum (domain or fragment, UniProt Q977Y4 611-759, looked up)
chain: VKNETVKLSVGTVSGNPGDTVKVPVTISQVSTPVGLICMDISYDASKFTVKDVLPNTDLVKDTDNYSFIVNTSTPGKISITFTDPTLANYPISVDGILAYLDFIINSNATAGDSALTVDPATLIVADENDKDIKDAASNGKITVTGSAP
B2: CaDoc0917, dockerin module of Clostridium acetobutylicum (domain or fragment, UniProt Q97KK2 477-537, looked up)
chain: NTILGDLNDDGVVNGRDIVMMRQYLAGKTVSGIDKNALDINGDGAVNGRDLMELIKKVSNN

Assays:
Test in all cases: ITC
[1] = target: CaDoc0917(R16D) (Clostridium acetobutylicum)
[2] = target: CaDoc0917(R49D) (Clostridium acetobutylicum)
[3] = target: CaDoc0917(R16D) (Clostridium acetobutylicum); remark: listed apart in the source
[4] = target: CaDoc0917(R49D) (Clostridium acetobutylicum); remark: listed apart in the source
[5] = target: B2
[6] = target: CaDoc0917(R49D/R22I) (Clostridium acetobutylicum)
[7] = target: CaDoc0917(R16D/I55R) (Clostridium acetobutylicum)
[8] = target: CaDoc0917(R49D/V19M) (Clostridium acetobutylicum)
[9] = target: CaDoc0917(R16D/M52V) (Clostridium acetobutylicum)
[10] = target: CaDoc0917(R49D/R22I) (Clostridium acetobutylicum); remark: listed apart in the source
[11] = target: CaDoc0917(R16D/I55R) (Clostridium acetobutylicum); remark: listed apart in the source
[12] = target: CaDoc0917(R49D/V19M) (Clostridium acetobutylicum); remark: listed apart in the source
[13] = target: CaDoc0917(R16D/M52V) (Clostridium acetobutylicum); remark: listed apart in the source
[14] = target: CaDoc0917(R16DE53Q) (Clostridium acetobutylicum)
[15] = target: B2; remark: listed apart in the source
[16] = target: B2; remark: listed apart in the source
[17] = target: B1
[18] = target: B1; remark: listed apart in the source
[19] = target: B1; remark: listed apart in the source

Ka [1]: 2.2e+07 M⁻¹
Ka [2]: 2.1e+07 M⁻¹
Ka [3]: 120000 M⁻¹
Ka [4]: 1.57e+06 M⁻¹
Molecule: CaCohA2 E128Q (domain or fragment)

Ka [1]: 3.6e+06 M⁻¹
Ka [2]: 1.1e+07 M⁻¹
Ka [3]: 460000 M⁻¹
Ka [4]: 2.32e+06 M⁻¹
Molecule: CaCohA2 E128Q/D130N (domain or fragment)

Ka [2]: 2.1e+07 M⁻¹
Ka [3]: 320000 M⁻¹
Ka [4]: 4.24e+06 M⁻¹
Molecule: CaCohA2 D130N (domain or fragment)

Molecule: B1
dH [5]: -9.54 ± 0.13 kcal/mol
stoichiometry N [5]: 1.09 ± 0.011
Ka [6]: 2.1e+07 M⁻¹
Ka [7]: 1.32e+08 M⁻¹
Ka [1]: 1.03e+08 M⁻¹
Ka [8]: 5.15e+08 M⁻¹
Ka [9]: 2.9e+07 M⁻¹
Ka [2]: 4.3e+07 M⁻¹
Ka [10]: 180000 M⁻¹
Ka [11]: 1.04e+06 M⁻¹
Ka [3]: 170000 M⁻¹
Ka [12]: 1.98e+06 M⁻¹
Ka [13]: 290000 M⁻¹
Ka [14]: 1.93e+06 M⁻¹
Ka [4]: 1.39e+06 M⁻¹
dH [15]: -7.37 ± 0.04 kcal/mol
stoichiometry N [15]: 0.95 ± 0.002
dH [16]: -4.67 ± 0.03 kcal/mol
stoichiometry N [16]: 0.862 ± 0.003

Molecule: B2
Ka [17]: 1.8e+06 M⁻¹
Ka [18]: 1.48e+08 M⁻¹
Ka [19]: 2.4e+07 M⁻¹
